These are literature values, as cited in US5972698A, “Tryptase inhibitor” (Novartis Corporation, priority 1993, dated 1999).

Sequences and labels used below:
B1: soybean trypsin inhibitor: printed as 'soybean and lima bean trypsin inhibitor' (protein, UniProt P01070 25-205, looked up)
Trypsin inhibitor A: DFVLDNEGNPLENGGTYYILSDITAFGGIRAAPTGNERCPLTVVQSRNELDKGIGTIISSPYRIRFIAEGHPLSLKFDSFAVIMLCVGIPTEWSVVEDLPEGPAVKIGENKDAMDGWFRLERVSDDEFNNYKLVFCPQQAEDDKCGDIGISIDHDDGTRRLVVSKNKPLVVQFQKLDKESL
B2: ovomucoid inhibitor: proteinase inhibitor derived from non-human species (protein, UniProt P01005 25-210, looked up)
Ovomucoid: AEVDCSRFPNATDKEGKDVLVCNKDLRPICGTDGVTYTNDCLLCAYSIEFGTNISKEHDGECKETVPMNCSSYANTTSEDGKVMVLCNRAFNPVCGTDGVTYDNECLLCAHKVEQGASVDKRHDGGCRKELAAVSVDCSEYPKPDCTAEDRPLCGSDNKTYGNKCNFCNAVVESNGTLTLSHFGKC
B3: mucus-proteinaseinhibitor: naturally occurring antiproteinase (protein, UniProt P03973 26-132, looked up)
Antileukoproteinase: SGKSFKAGVCPPKKSAQCLRYKKPECQSDWQCPGKKRCCPDTCGIKCLDPVDTPNPTRRKPGKCPVTYGQCLMLNPPNFCEMDGQCKRDLKCCMGMCGKSCVSPVKA

The data set concerns Human tryptase.
Turning to B1, the “inhibition of tryptase (literature)” value is on record as “not affected”.

As for B2, the “inhibition of tryptase (literature)” value is “not affected”.

In the case of B3, the “inhibition of tryptase (literature)” value was “not inhibited”.
